Test results as given in US20190062438A1 (CSL, published 2019).

T1: human CD131 (human, UniProt P32927 17-897)
T1 sequence: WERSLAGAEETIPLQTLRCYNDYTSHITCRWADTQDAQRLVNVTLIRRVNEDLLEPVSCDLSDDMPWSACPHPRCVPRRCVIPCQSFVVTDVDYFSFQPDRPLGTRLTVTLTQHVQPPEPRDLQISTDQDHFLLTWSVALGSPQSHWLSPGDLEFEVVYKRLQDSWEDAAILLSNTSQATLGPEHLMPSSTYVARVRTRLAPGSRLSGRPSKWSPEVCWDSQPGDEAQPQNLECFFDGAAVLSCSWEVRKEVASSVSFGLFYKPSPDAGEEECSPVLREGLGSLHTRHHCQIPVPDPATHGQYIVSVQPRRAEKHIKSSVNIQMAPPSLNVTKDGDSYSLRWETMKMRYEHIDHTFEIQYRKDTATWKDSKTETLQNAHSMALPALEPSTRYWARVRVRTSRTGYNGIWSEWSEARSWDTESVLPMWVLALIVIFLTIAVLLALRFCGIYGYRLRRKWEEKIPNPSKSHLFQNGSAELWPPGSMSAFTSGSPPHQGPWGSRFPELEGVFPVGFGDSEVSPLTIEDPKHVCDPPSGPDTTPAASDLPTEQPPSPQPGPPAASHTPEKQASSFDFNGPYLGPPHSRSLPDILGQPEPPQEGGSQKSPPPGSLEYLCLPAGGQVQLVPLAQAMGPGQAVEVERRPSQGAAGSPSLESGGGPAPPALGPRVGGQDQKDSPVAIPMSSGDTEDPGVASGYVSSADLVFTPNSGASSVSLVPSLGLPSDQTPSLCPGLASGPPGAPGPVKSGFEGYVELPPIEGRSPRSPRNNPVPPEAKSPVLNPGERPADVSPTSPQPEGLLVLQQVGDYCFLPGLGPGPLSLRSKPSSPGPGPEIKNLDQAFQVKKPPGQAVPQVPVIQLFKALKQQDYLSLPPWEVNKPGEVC


Target: T1, human CD131
Experiment: cell-based or functional assay

| Binder | IC50 GM-CSF, TF-1 proliferation [nM] | pStat5 IC50 GM-CSF, TF-1 bla reporter [nM] |
| --- | --- | --- |
| 9A2-VR11 (antibody, V domains shown) VH: EVQLLESGGGLVQPGGSLRLSCAASGFTFSHYHMLWVRQAPGKGLEWVSSIRSSGGFTYYADSVKGRFTISRDNSKNTLYLQMNSLRAEDTAVYYCARFYDSFFDIWGQGTMVTVSS VL: DIQMTQSPSSVSASVGDRVTITCRASQGVRPFVSWYQQKPGKAPKLLIYAASSLQSGVPSRFSGSGSGTDFTLTISSLQPEDFATYYCQQANSFPITFGQGTRLEIKR | 353 | – |
| 9A2-VR20 (antibody, V domains shown) VH: EVQLLESGGGLVQPGGSLRLSCAASGFTFNHYRVHWVRQAPGKGLEWVSSIRSSGGFTYYADSVKGRFTISRDNSKNTLYLQMNSLRAEDTAVYYCARFYDSFFDIWGQGTMVTVSS VL: DIQMTQSPSSVSASVGDRVTITCRASQGISSWLAWYQQKPGKAPKLLIYAASSLQSGVPSRFSGSGSGTDFTLTISSLQPEDFATYYCQQANSFPITFGQGTRLEIKR | 79.3 | – |
| 9A2-VR21 (antibody, V domains shown) VH: EVQLLESGGGLVQPGGSLRLSCAASGFTFMHYRVHWVRQAPGKGLEWVSSIRSSGGFTYYADSVKGRFTISRDNSKNTLYLQMNSLRAEDTAVYYCARFYDSFFDIWGQGTMVTVSS VL: DIQMTQSPSSVSASVGDRVTITCRASQGISSWLAWYQQKPGKAPKLLIYAASSLQSGVPSRFSGSGSGTDFTLTISSLQPEDFATYYCQQANSFPITFGQGTRLEIKR | 99.8 | – |
| 9A2-VR12 (antibody, V domains shown) VH: EVQLLESGGGLVQPGGSLRLSCAASGFTFSHYHMLWVRQAPGKGLEWVSSIRSSGGFTYYADSVKGRFTISRDNSKNTLYLQMNSLRAEDTAVYYCARFYDSFFDIWGQGTMVTVSS VL: DIQMTQSPSSVSASVGDRVTITCRASQGIRPFVSWYQQKPGKAPKLLIYAASSLQSGVPSRFSGSGSGTDFTLTISSLQPEDFATYYCQQANSFPITFGQGTRLEIKR | 198 | – |
| 9A2-VR26 (antibody, V domains shown) VH: EVQLLESGGGLVQPGGSLRLSCAASGFTFIHYRVHWVRQAPGKGLEWVSSIRSSGGFTYYADSVKGRFTISRDNSKNTLYLQMNSLRAEDTAVYYCARFYDSFFDIWGQGTMVTVSS VL: DIQMTQSPSSVSASVGDRVTITCRASQGISSWLAWYQQKPGKAPKLLIYAASSLQSGVPSRFSGSGSGTDFTLTISSLQPEDFATYYCQQANSFPITFGQGTRLEIKR | 4.6 | 23.6 |
| 9A2-VR14 (antibody, V domains shown) VH: EVQLLESGGGLVQPGGSLRLSCAASGFTFSHYHMLWVRQAPGKGLEWVSSIRSSGGFTYYADSVKGRFTISRDNSKNTLYLQMNSLRAEDTAVYYCARFYDSFFDIWGQGTMVTVSS VL: DIQMTQSPSSVSASVGDRVTITCRASQGISSWLAWYQQKPGKAPKLLIYAASSLQSGVPSRFSGSGSGTDFTLTISSLQPEDFATYYCGKPVFDPITFGQGTRLEIKR | > 1000 | – |
| 9A2-VR16 (antibody, V domains shown) VH: EVQLLESGGGLVQPGGSLRLSCAASGFTFSHYHMLWVRQAPGKGLEWVSSIRSSGGFTYYADSVKGRFTISRDNSKNTLYLQMNSLRAEDTAVYYCARFYDSFFDIWGQGTMVTVSS VL: DIQMTQSPSSVSASVGDRVTITCRASQGISSWLAWYQQKPGKAPKLLIYAASSLQSGVPSRFSGSGSGTDFTLTISSLQPEDFATYYCGIPVLGPITFGQGTRLEIKR | > 1000 | – |
| 9A2-VR22 (antibody, V domains shown) VH: EVQLLESGGGLVQPGGSLRLSCAASGFTFQWYRVHWVRQAPGKGLEWVSSIRSSGGFTYYADSVKGRFTISRDNSKNTLYLQMNSLRAEDTAVYYCARFYDSFFDIWGQGTMVTVSS VL: DIQMTQSPSSVSASVGDRVTITCRASQGISSWLAWYQQKPGKAPKLLIYAASSLQSGVPSRFSGSGSGTDFTLTISSLQPEDFATYYCQQANSFPITFGQGTRLEIKR | 39.9 | – |
| 9A2-VR23 (antibody, V domains shown) VH: EVQLLESGGGLVQPGGSLRLSCAASGFTFEWYRVHWVRQAPGKGLEWVSSIRSSGGFTYYADSVKGRFTISRDNSKNTLYLQMNSLRAEDTAVYYCARFYDSFFDIWGQGTMVTVSS VL: DIQMTQSPSSVSASVGDRVTITCRASQGISSWLAWYQQKPGKAPKLLIYAASSLQSGVPSRFSGSGSGTDFTLTISSLQPEDFATYYCQQANSFPITFGQGTRLEIKR | 60 | 24 |
| 9A2-VR13 (antibody, V domains shown) VH: EVQLLESGGGLVQPGGSLRLSCAASGFTFSHYHMLWVRQAPGKGLEWVSSIRSSGGFTYYADSVKGRFTISRDNSKNTLYLQMNSLRAEDTAVYYCARFYDSFFDIWGQGTMVTVSS VL: DIQMTQSPSSVSASVGDRVTITCRASQGISSWLAWYQQKPGKAPKLLIYAASSLQSGVPSRFSGSGSGTDFTLTISSLQPEDFATYYCGKPVLDPITFGQGTRLEIKR | > 1000 | – |
| 9A2-VR19 (antibody, V domains shown) VH: EVQLLESGGGLVQPGGSLRLSCAASGFTFSHYHMLWVRQAPGKGLEWVSSIRSSGGFTYYADSVKGRFTISRDNSKNTLYLQMNSLRAEDTAVYYCARFYDSFFDIWGQGTMVTVSS VL: DIQMTQSPSSVSASVGDRVTITCRASQGISSWLAWYQQKPGKAPKLLIYAASSLQSGVPSRFSGSGSGTDFTLTISSLQPEDFATYYCGIPILGPITFGQGTRLEIKR | > 1000 | – |
| 9A2-VR27 (antibody, V domains shown) VH: EVQLLESGGGLVQPGGSLRLSCAASGFTFTHYRVHWVRQAPGKGLEWVSSIRSSGGFTYYADSVKGRFTISRDNSKNTLYLQMNSLRAEDTAVYYCARFYDSFFDIWGQGTMVTVSS VL: DIQMTQSPSSVSASVGDRVTITCRASQGISSWLAWYQQKPGKAPKLLIYAASSLQSGVPSRFSGSGSGTDFTLTISSLQPEDFATYYCQQANSFPITFGQGTRLEIKR | 4.9 | 8.5 |

Next, values leading:

| IC50 GM-CSF, TF-1 proliferation [nM] | pStat5 IC50 GM-CSF, TF-1 bla reporter [nM] | Binder |
| --- | --- | --- |
| 233 | – | 9A2-VR31 (antibody, V domains shown) VH: EVQLLESGGGLVQPGGSLRLSCAASGFTFSHYHMLWVRQAPGKGLEWVSSISGAQWSTYYADSVKGRFTISRDNSKNTLYLQMNSLRAEDTAVYYCARFYDSFFDIWGQGTMVTVSS VL: DIQMTQSPSSVSASVGDRVTITCRASQGISSWLAWYQQKPGKAPKLLIYAASSLQSGVPSRFSGSGSGTDFTLTISSLQPEDFATYYCQQANSFPITFGQGTRLEIKR |
| 602 | – | 9A2-VR33 (antibody, V domains shown) VH: EVQLLESGGGLVQPGGSLRLSCAASGFTFSHYHMLWVRQAPGKGLEWVSSINGSGWTTYYADSVKGRFTISRDNSKNTLYLQMNSLRAEDTAVYYCARFYDSFFDIWGQGTMVTVSS VL: DIQMTQSPSSVSASVGDRVTITCRASQGISSWLAWYQQKPGKAPKLLIYAASSLQSGVPSRFSGSGSGTDFTLTISSLQPEDFATYYCQQANSFPITFGQGTRLEIKR |
| 47.9 | – | 9A2-VR28 (antibody, V domains shown) VH: EVQLLESGGGLVQPGGSLRLSCAASGFTFVHYRVHWVRQAPGKGLEWVSSIRSSGGFTYYADSVKGRFTISRDNSKNTLYLQMNSLRAEDTAVYYCARFYDSFFDIWGQGTMVTVSS VL: DIQMTQSPSSVSASVGDRVTITCRASQGISSWLAWYQQKPGKAPKLLIYAASSLQSGVPSRFSGSGSGTDFTLTISSLQPEDFATYYCQQANSFPITFGQGTRLEIKR |
| 184 | – | 9A2-VR34 (antibody, V domains shown) VH: EVQLLESGGGLVQPGGSLRLSCAASGFTFSHYHMLWVRQAPGKGLEWVSSISGSHFPTYYADSVKGRFTISRDNSKNTLYLQMNSLRAEDTAVYYCARFYDSFFDIWGQGTMVTVSS VL: DIQMTQSPSSVSASVGDRVTITCRASQGISSWLAWYQQKPGKAPKLLIYAASSLQSGVPSRFSGSGSGTDFTLTISSLQPEDFATYYCQQANSFPITFGQGTRLEIKR |
| 76 | – | 9A2-VR35 (antibody, V domains shown) VH: EVQLLESGGGLVQPGGSLRLSCAASGFTFSHYHMLWVRQAPGKGLEWVSSINGFGRNTYYADSVKGRFTISRDNSKNTLYLQMNSLRAEDTAVYYCARFYDSFFDIWGQGTMVTVSS VL: DIQMTQSPSSVSASVGDRVTITCRASQGISSWLAWYQQKPGKAPKLLIYAASSLQSGVPSRFSGSGSGTDFTLTISSLQPEDFATYYCQQANSFPITFGQGTRLEIKR |
| 31.2 | – | 9A2-VR32 (antibody, V domains shown) VH: EVQLLESGGGLVQPGGSLRLSCAASGFTFSHYHMLWVRQAPGKGLEWVSSISGSVRSTYYADSVKGRFTISRDNSKNTLYLQMNSLRAEDTAVYYCARFYDSFFDIWGQGTMVTVSS VL: DIQMTQSPSSVSASVGDRVTITCRASQGISSWLAWYQQKPGKAPKLLIYAASSLQSGVPSRFSGSGSGTDFTLTISSLQPEDFATYYCQQANSFPITFGQGTRLEIKR |
| 38.1 | – | 9A2-VR36 (antibody, V domains shown) VH: EVQLLESGGGLVQPGGSLRLSCAASGFTFSHYHMLWVRQAPGKGLEWVSSIGGDKRQTYYADSVKGRFTISRDNSKNTLYLQMNSLRAEDTAVYYCARFYDSFFDIWGQGTMVTVSS VL: DIQMTQSPSSVSASVGDRVTITCRASQGISSWLAWYQQKPGKAPKLLIYAASSLQSGVPSRFSGSGSGTDFTLTISSLQPEDFATYYCQQANSFPITFGQGTRLEIKR |
